Results from PMC5241119, “Structural snapshots of Xer recombination reveal activation by synaptic complex remodeling and DNA bending”.

What was measured:
[1] = target: Helicobacter pylori XerH recombinase, full-length wild type (Helicobacter pylori) (UniProt O25386); assay: crystal structure; XerH co-crystallised with nicked palindromic 'suicide' difHLP DNA (post-cleavage synaptic complex; two XerH and one DNA in the asymmetric unit, tetramer by crystallographic two-fold); well 0.1 M HEPES pH 7-8, 0.2 M MgCl2, 25-35% PEG 400; 6°C
[2] = target: Helicobacter pylori XerH recombinase, full-length wild type (Helicobacter pylori) (UniProt O25386); assay: crystal structure; full-length wild-type XerH co-crystallised with a 30 bp difH DNA duplex (pre-cleavage synaptic complex: four XerH, two difH); protein:DNA 1.2:1; well 0.2 M NaCl, 20-25% PEG 3350; 6°C
XerH [3] = target: T1, XerH (Helicobacter pylori strain 26995 (as …, UniProt O25386 1-362)); assay: EMSA; 10 mM Mg2+; all complex species summed; EMSA: 25 mM HEPES pH 7.5, 100 mM NaCl, 10 mM MgCl2, 5% glycerol, 1 mM DTT, 1 mM EDTA, 1 h at 30 C, 20 nM DNA, 0-360 nM XerH; SEC complexes prepared as for crystallization (dialysed to 25 mM Na acetate pH 5.5, 200 mM NaCl, 5% glycerol, 1 mM DTT); conditions: protein: recombinant; tags: His6-SUMO N-terminal, removed with SenP2; label: 5'-32P; blunt
T1 sequence: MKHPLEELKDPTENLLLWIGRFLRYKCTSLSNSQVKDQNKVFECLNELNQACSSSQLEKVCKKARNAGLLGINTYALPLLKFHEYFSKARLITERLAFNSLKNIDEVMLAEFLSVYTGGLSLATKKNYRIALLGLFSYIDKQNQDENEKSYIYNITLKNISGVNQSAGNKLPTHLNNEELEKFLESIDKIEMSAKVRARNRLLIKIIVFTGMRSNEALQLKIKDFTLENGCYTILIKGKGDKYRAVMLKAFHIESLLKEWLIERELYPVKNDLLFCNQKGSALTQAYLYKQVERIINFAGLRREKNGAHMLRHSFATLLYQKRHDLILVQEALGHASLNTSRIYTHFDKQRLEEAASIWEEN

XerH [4] = target: T1, XerH; assay: analytical SEC; no shift in retention; EMSA: 25 mM HEPES pH 7.5, 100 mM NaCl, 10 mM MgCl2, 5% glycerol, 1 mM DTT, 1 mM EDTA, 1 h at 30 C, 20 nM DNA, 0-360 nM XerH; SEC complexes prepared as for crystallization (dialysed to 25 mM Na acetate pH 5.5, 200 mM NaCl, 5% glycerol, 1 mM DTT); conditions: protein: recombinant; tags: His6-SUMO N-terminal, removed with SenP2; blunt, self-complementary, 2 copies of one strand
XerH [5] = target: T1, XerH; assay: X-ray crystallography; 2.1 A; pre-cleavage, pH 5.5, no metal; EMSA: 25 mM HEPES pH 7.5, 100 mM NaCl, 10 mM MgCl2, 5% glycerol, 1 mM DTT, 1 mM EDTA, 1 h at 30 C, 20 nM DNA, 0-360 nM XerH; SEC complexes prepared as for crystallization (dialysed to 25 mM Na acetate pH 5.5, 200 mM NaCl, 5% glycerol, 1 mM DTT); conditions: protein: recombinant; tags: His6-SUMO N-terminal, removed with SenP2; blunt ends, terminal G:A mismatch at strand 1 position 1 as printed; two duplexes per complex
XerH [6] = target: T1, XerH; assay: analytical SEC; EMSA: 25 mM HEPES pH 7.5, 100 mM NaCl, 10 mM MgCl2, 5% glycerol, 1 mM DTT, 1 mM EDTA, 1 h at 30 C, 20 nM DNA, 0-360 nM XerH; SEC complexes prepared as for crystallization (dialysed to 25 mM Na acetate pH 5.5, 200 mM NaCl, 5% glycerol, 1 mM DTT); conditions: protein: recombinant, tags: His6-SUMO N-terminal, removed with SenP2, blunt
XerH K290S = XerH K290S (Helicobacter pylori strain 26995 (as …, UniProt O25386 1-362, K290S)); assay: EMSA; K290S does not affect difH binding; EMSA: 25 mM HEPES pH 7.5, 100 mM NaCl, 10 mM MgCl2, 5% glycerol, 1 mM DTT, 1 mM EDTA, 1 h at 30 C, 20 nM DNA, 0-360 nM XerH; SEC complexes prepared as for crystallization (dialysed to 25 mM Na acetate pH 5.5, 200 mM NaCl, 5% glycerol, 1 mM DTT); conditions: protein: recombinant; tags: His6-SUMO N-terminal, removed with SenP2; label: 5'-32P; blunt

## Helicobacter pylori XerH recombinase, full-length wild type (from UniProt O25386 1-362) (enzyme)
[1]
  stoichiometry N: 4
[2]
  stoichiometry N: 4

B1: difHR 50 bp (right arm, left arm replaced by random) (dsDNA)
DNA 1: CATATTTTTCCTTTTAAATTCACTGCACTTTTCAAACTTTTAAATCAAAC
DNA 2: GTTTGATTTAAAAGTTTGAAAAGTGCAGTGAATTTAAAAGGAAAAATATG
XerH [3]
  Kd: 230 nM

B2: difHL 50 bp (left arm, right arm replaced by random) (dsDNA)
DNA 1: TAAATTCATTTAGTTATGAAAACTGCACTTAAATCAAACCATTTAAATAA
DNA 2: TTATTTAAATGGTTTGATTTAAGTGCAGTTTTCATAACTAAATGAATTTA
XerH [3]
  Kd: 180 nM

B3: difHRP (right-arm palindrome, 30 bp) (dsDNA)
DNA 1: AAAGTTTGAAAAGTGCACTTTTCAAACTTT
DNA 2: AAAGTTTGAAAAGTGCACTTTTCAAACTTT
XerH [4]
  binding result: no binding

B4: difH 30 bp (pre-cleavage crystal) (dsDNA)
DNA 1: GAGTTATGAAAACTGCACTTTTCAAACTTT
DNA 2: AAAGTTTGAAAAGTGCAGTTTTCATAACTA
XerH [5]
  binding result: binds

B5: difHLP (left-arm palindrome, 30 bp) (dsDNA)
DNA 1: TAGTTATGAAAACTGCAGTTTTCATAACTA
DNA 2: TAGTTATGAAAACTGCAGTTTTCATAACTA
XerH [6]; self-complementary, 2 copies of one strand
  binding result: binds

B6: difH 50 bp (dsDNA)
DNA 1: TAAATTCATTTAGTTATGAAAACTGCACTTTTCAAACTTTTAAATCAAAC
DNA 2: GTTTGATTTAAAAGTTTGAAAAGTGCAGTTTTCATAACTAAATGAATTTA
XerH K290S
  binding result: binds
XerH [3]
  Kd: 150 nM

B7: difH 30 bp (SEC) (dsDNA)
DNA 1: TAGTTATGAAAACTGCACTTTTCAAACTTT
DNA 2: AAAGTTTGAAAAGTGCAGTTTTCATAACTA
XerH [6]
  binding result: binds
